Test results: patent publication US20160251440A1 (Ablynx, published 2016)
Where two headings read alike, the source gives them in different places.

Key:
[1] = target: T1, human CEACAM5, cell-expressed (human, UniProt P06731 35-685); experiment: FACS, LoVo cells
T1 construct: whole, on cells
T1 sequence (looked up): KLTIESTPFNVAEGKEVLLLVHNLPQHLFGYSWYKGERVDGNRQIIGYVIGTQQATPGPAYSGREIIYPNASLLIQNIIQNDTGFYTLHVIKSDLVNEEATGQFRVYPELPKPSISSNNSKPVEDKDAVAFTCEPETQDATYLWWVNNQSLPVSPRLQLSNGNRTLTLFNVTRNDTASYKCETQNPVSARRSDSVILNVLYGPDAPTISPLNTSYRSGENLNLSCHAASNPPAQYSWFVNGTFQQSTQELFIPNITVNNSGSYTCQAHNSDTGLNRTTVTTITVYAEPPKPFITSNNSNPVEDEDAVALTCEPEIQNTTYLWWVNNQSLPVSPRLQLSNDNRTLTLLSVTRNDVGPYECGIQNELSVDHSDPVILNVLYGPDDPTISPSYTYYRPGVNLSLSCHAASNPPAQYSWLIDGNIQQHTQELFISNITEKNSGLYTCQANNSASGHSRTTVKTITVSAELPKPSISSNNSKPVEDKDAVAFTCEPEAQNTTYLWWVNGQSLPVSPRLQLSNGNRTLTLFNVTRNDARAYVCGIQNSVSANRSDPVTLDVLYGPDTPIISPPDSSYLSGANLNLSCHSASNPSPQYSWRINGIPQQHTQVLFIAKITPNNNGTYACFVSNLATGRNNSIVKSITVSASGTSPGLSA

[2] = target: T2, recombinant human CEACAM5 (human, UniProt P06731 35-685); experiment: ELISA, coated CEACAM5
T2 construct: also called hCEACAM-5; R&D Systems 4128-CM
T2 sequence (looked up): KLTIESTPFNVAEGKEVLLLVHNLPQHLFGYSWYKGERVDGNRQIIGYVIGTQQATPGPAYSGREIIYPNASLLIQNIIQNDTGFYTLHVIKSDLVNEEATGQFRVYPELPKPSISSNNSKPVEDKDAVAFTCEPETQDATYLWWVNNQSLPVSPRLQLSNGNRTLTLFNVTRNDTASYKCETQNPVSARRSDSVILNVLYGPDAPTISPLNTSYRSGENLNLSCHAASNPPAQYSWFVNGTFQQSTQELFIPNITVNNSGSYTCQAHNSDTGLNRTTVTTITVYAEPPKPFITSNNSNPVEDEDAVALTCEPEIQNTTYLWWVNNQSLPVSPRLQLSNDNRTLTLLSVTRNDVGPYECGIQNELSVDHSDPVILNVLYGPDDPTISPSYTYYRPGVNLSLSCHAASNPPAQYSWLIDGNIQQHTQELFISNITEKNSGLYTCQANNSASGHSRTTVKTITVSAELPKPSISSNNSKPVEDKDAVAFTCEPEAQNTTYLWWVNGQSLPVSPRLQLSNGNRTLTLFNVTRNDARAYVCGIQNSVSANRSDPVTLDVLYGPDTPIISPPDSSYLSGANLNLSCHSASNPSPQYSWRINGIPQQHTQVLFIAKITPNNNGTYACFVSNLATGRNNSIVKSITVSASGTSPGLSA

[3] = target: T3, CXCR4 and CD4 co-expressed on cells (MOLM-13, THP-1, MT-4, PBMC; Jurkat CD4 low) (human, UniProt P61073 1-352; P01730 26-458); experiment: cell-based or functional assay
[4] = target: T4, human CXCR4 (on cells, viral lipoparticles or membrane extracts) (human, UniProt P61073 1-352); experiment: ELISA on coated hCXCR4 lipoparticles against null lipoparticles at 100, 10, 1 and 0 nM, anti-c-myc detection
T4 construct: whole, on cells; also called hCXCR4 VLPs; CXCR4-lip

[5] = target: T1, human CEACAM5, cell-expressed; experiment: FACS, LoVo cells; remark: listed apart in the source
[6] = target: T2, recombinant human CEACAM5; experiment: ELISA, coated CEACAM5; remark: listed apart in the source
[7] = target: T2, recombinant human CEACAM5; experiment: SPR Biacore T100, immobilised hCEACAM-5
[8] = target: T5, human EGFR, cell-expressed (human, UniProt P00533 25-1210); experiment: flow cytometry on HER14 cells (EGFR only), anti-Flag detection
T5 construct: whole, on cells; also called ErbB-1

[9] = target: T4, human CXCR4 (on cells, viral …); experiment: cell-based or functional assay
[10] = target: T6, CXCR4 and IL-3Rα (CD123) co-expressed on MOLM-13 / THP-1 cells (human, UniProt P61073 1-352; P26951 19-378); experiment: flow cytometry on THP-1 cells (CXCR4 and IL-3Ra)
T6 construct: whole, on cells; two separate membrane proteins on one cell, not a complex; target of bispecifics on double-positive cells; also called CXCR4+/CD123+ cells

[11] = target: T6, CXCR4 and IL-3Rα (CD123) co-expressed …; experiment: flow cytometry on MOLM-13 cells (IL-3Ra higher than CXCR4)
[12] = target: T7, recombinant IL-3Rα ectodomain (human, UniProt P26951 19-305); experiment: ELISA on recombinant IL-3Ra ectodomain (panel 'IL-3Ra ELISA', lower left)
T7 construct: extracellular domain; also called recombinant IL-3Ra; biotinylated-IL-3Rα ectodomain
T7 sequence (looked up): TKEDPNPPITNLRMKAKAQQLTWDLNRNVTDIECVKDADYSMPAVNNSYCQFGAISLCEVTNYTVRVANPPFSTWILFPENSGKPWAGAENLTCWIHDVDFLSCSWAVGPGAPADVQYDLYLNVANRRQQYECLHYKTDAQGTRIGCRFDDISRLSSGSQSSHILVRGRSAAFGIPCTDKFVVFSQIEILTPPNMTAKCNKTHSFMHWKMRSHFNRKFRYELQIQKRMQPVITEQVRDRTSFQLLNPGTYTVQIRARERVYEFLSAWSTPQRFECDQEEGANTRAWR

[13] = target: T4, human CXCR4 (on cells, viral …); experiment: cell-based or functional assay; remark: listed apart in the source
[14] = target: T3, CXCR4 and CD4 co-expressed on cells …; experiment: cell-based or functional assay; remark: listed apart in the source
[15] = target: T3, CXCR4 and CD4 co-expressed on cells …; experiment: cell-based or functional assay; remark: listed apart in the source
[16] = target: T3, CXCR4 and CD4 co-expressed on cells …; experiment: FACS, MOLM-13 cells (CXCR4+/CD4+)
[17] = target: T3, CXCR4 and CD4 co-expressed on cells …; experiment: FACS, Jurkat E6-1 cells (CXCR4+/CD4 low)
[18] = target: T3, CXCR4 and CD4 co-expressed on cells …; experiment: flow cytometry on THP-1 cells (CD4 and CXCR4), detection via tag

T3 sequence (P61073 whole entry, chain 1 of 2, other chains not shown): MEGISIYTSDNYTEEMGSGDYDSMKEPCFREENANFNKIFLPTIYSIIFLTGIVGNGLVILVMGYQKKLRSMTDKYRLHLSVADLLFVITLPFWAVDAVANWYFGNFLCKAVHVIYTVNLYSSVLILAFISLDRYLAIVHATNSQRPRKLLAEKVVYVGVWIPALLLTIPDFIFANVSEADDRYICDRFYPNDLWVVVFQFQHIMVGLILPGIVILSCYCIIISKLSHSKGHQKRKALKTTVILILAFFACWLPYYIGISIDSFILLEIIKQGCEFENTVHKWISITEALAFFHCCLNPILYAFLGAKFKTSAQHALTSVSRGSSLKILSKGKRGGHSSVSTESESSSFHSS
T4 sequence (P61073 whole entry): as the sequence (P61073 whole entry, chain 1 of 2, other chains not shown) above
T6 sequence (P61073 whole entry, one chain of several): as the sequence (P61073 whole entry, chain 1 of 2, other chains not shown) above

B1: CEA#1-35GS-ctrl (bispecific antibody)
chain: EVQLVESGGGSVQAGGSLRLSCAASGDTYGSYWMGWFRQAPGKEREGVAAINRGGGYTVYADSVKGRFTISRDTAKNTVYLQMNSLRPDDTADYYCAASGVLGGLHEDWFNYWGQGTLVTVSSGGGGSGGGGSGGGGSGGGGSGGGGSGGGGSGGGGSDVQLQASGGGSVQAGGSLRLSCAASGYTIGPYCMGWFRQAPGKEREGVAAINMGGGITYYADSVKGRFTISQDNAKNTVYLLMNSLEPEDTAIYYCAADSTIYASYYECGHGLSTGGYGYDSWGQGTQVTVSS
notes: also called BI#48; T023200048
- EC50 [1]: 0.92 nM
- EC50 [2]: 0.026 nM

B2: CEA#5-35GS-ctrl (bispecific antibody)
chain: EVQLVESGGGSVQAGGSLRLSCAASGDTYGSYWMGWFRQAPGQEREAVAAINRGGGYTVYADSVKGRFTISRDNAKNTLYLQMNSLRPDDTADYYCAASGVLGGLHEDWFNYWGQGTLVTVSSGGGGSGGGGSGGGGSGGGGSGGGGSGGGGSGGGGSDVQLQASGGGSVQAGGSLRLSCAASGYTIGPYCMGWFRQAPGKEREGVAAINMGGGITYYADSVKGRFTISQDNAKNTVYLLMNSLEPEDTAIYYCAADSTIYASYYECGHGLSTGGYGYDSWGQGTQVTVSS
notes: also called BI#51; T023200051
- EC50 [1]: 2.6 nM
- EC50 [2]: 0.11 nM

B3: 281F12-9GS-03F11 (bispecific antibody)
chain: EVQLVESGGGLVQAGDSLRLSCAASGRAFSRYAMGWFRQAPGKEREFVAAIGWGPSKTNYADSVKGRFTISRDNAKNTVYLQMNTLKPEDTAVYSCAAKFVNTDSTWSRSEMYTYWGQGTQVTVSSGGGSGGGGSEVQLVESGGGSVQPGGSLTLSCGTSGRTFNVMGWFRQAPGKEREFVAAVRWSSTGIYYTQYADSVKSRFTISRDNAKNTVYLEMNSLKPEDTAVYYCAADTYNSNPARWDGYDFRGQGTQVTVSS
notes: also called CXCR4#2-9GS-CD4#8
- IC50, HIV-1 NL4.3 (X4), MT-4 [3]: 0.2 nM
- IC50, HIV-1 NL4.3 (X4), PBMC [3]: 0.03 nM
- IC50, HIV-1 NL4.3 (X4), U87 [3]: 0.53 nM
- binding result [4]: binds

B4: CEA#5 (VHH)
VHH: EVQLVESGGGSVQAGGSLRLSCAASGDTYGSYWMGWFRQAPGQEREAVAAINRGGGYTVYADSVKGRFTISRDNAKNTLYLQMNSLRPDDTADYYCAASGVLGGLHEDWFNYWGQGTLVTVSS
notes: also called T023200005; NbCEA5(K43Q, G47A, T73N, V78L)
- EC50 [5]: 2.4 nM
- EC50 [6]: 0.11 nM
- Kd [7]: 3.1 nM
- koff [7]: 0.0033 s⁻¹
- kon [7]: 1.1e+06 M⁻¹ s⁻¹
- binding result [8]: no binding (tested: about 1E-7 M)

B5: CEA#1 (VHH)
VHH: EVQLVESGGGSVQAGGSLRLSCAASGDTYGSYWMGWFRQAPGKEREGVAAINRGGGYTVYADSVKGRFTISRDTAKNTVYLQMNSLRPDDTADYYCAASGVLGGLHEDWFNYWGQGTLVTVSS
notes: also called NbCEA5
- EC50 [5]: 1 nM
- EC50 [6]: 0.026 nM
- Kd [7]: 0.51 nM
- koff [7]: 0.00051 s⁻¹
- kon [7]: 990000 M⁻¹ s⁻¹
- binding result [8]: no binding (tested: about 1E-7 M)

B6: 281F12-35GS-55A01 (bispecific antibody)
chain: EVQLVESGGGLVQAGDSLRLSCAASGRAFSRYAMGWFRQAPGKEREFVAAIGWGPSKTNYADSVKGRFTISRDNAKNTVYLQMNTLKPEDTAVYSCAAKFVNTDSTWSRSEMYTYWGQGTLVTVSSGGGGSGGGGSGGGGSGGGGSGGGGSGGGGSGGGGSEVQLVESGGGSVQAGGSLRLSCTTSGRALNMYVMGWFRQAPGNEREFVAATSSSGGSTSYPDSVKGRFTISRDNAKNTVYLQMNSLKPEDTAAYRCAASPYVSTPTMNILEEYRYWGQGTLVTVSS
notes: also called CXCR4#2-CD123#2; 281F12-55A01
- Fold inc. vs CXCR4#2, Jurkat E6-1 [9]: 1.13 fold
- Fold inc. vs CXCR4#2, MOLM-13 [9]: 10.9 fold
- IC50, CXCL-12 chemotaxis, Jurkat E6-1 [9]: 86 nM
- IC50, CXCL-12 chemotaxis, MOLM-13 [9]: 7.85 nM
- EC50 (read off the curve) [10]: ~10 nM
- EC50 (read off the curve) [11]: ~10 nM
- EC50 (read off the curve) [12]: ~1 nM

B7: 03F11-35GS-281F12 (bispecific antibody)
chain: EVQLVESGGGSVQPGGSLTLSCGTSGRTFNVMGWFRQAPGKEREFVAAVRWSSTGIYYTQYADSVKSRFTISRDNAKNTVYLEMNSLKPEDTAVYYCAADTYNSNPARWDGYDFRGQGTQVTVSSGGGGSGGGGSGGGGSGGGGSGGGGSGGGGSGGGGSEVQLVESGGGLVQAGDSLRLSCAASGRAFSRYAMGWFRQAPGKEREFVAAIGWGPSKTNYADSVKGRFTISRDNAKNTVYLQMNTLKPEDTAVYSCAAKFVNTDSTWSRSEMYTYWGQGTQVTVSS
notes: also called CD4#8-35GS-CXCR4#2; CD4#8-CXCR4#2
- Fold increase vs CXCR4#2, Jurkat E6-1 [13]: 0.2 fold
- Fold increase vs CXCR4#2, MOLM-13 [13]: 67 fold
- IC50, SDF-1 chemotaxis, Jurkat E6-1 [13]: 460 nM
- IC50, SDF-1 chemotaxis, MOLM-13 [13]: 1.29 nM
- IC50, HIV-1 BaL (R5), PBMC [3]: 35.9 nM
- IC50, HIV-1 NL4.3 (X4), MT-4 [3]: 11.7 nM
- IC50, HIV-1 NL4.3 (X4), PBMC [3]: 23.7 nM
- IC50, HIV-1 NL4.3 (X4), U87 [3]: > 3330 nM
- IC50, HIV-1 NL4.3 wt, MT-4 [14]: 6 nM
- IC50, NL4.3 2G12 res., MT-4 [14]: 3 nM
- IC50, NL4.3 AMD-3100 res., MT-4 [14]: 14 nM
- IC50, NL4.3 CD4#8 res., MT-4 [14]: 95.7 nM
- IC50, NL4.3 CXCL-12res., MT-4 [14]: 70 nM
- IC50, NL4.3 CXCR4#2 res, MT-4 [14]: > 310 nM
- IC50, HIV-1 HE, MT-4 [15]: 2 nM
- IC50, HIV-1 NL4.3, MT-4 [15]: 6 nM
- IC50, HIV-2 ROD, MT-4 [15]: 8.75 nM
- EC50 [16]: 0.7 nM
- EC50 [17]: 1.1 nM
- EC50 (read off the curve) [18]: ~1 nM
